To fix the notation:
B1: SEQ ID NO 192 (peptide)
peptide: H[Aib]EGS[αMeF]TSDV[αMeS]S[αMeF]LEGEAA[αMeK]E[αMeF]IA[αMeF]VVK([γGlu-γGlu-Stearoyl])GG-NH2
modifications: N-terminus assumed
SMILES: CCCCCCCCCCCCCCCCCC(=O)N[C@@H](CCC(=O)N[C@@H](CCC(=O)NCCCC[C@H](NC(=O)[C@@H](NC(=O)[C@@H](NC(=O)[C@](C)(Cc1ccccc1)NC(=O)[C@H](C)NC(=O)[C@@H](NC(=O)[C@](C)(Cc1ccccc1)NC(=O)[C@H](CCC(=O)O)NC(=O)[C@](C)(CCCCN)NC(=O)[C@H](C)NC(=O)[C@H](C)NC(=O)[C@H](CCC(=O)O)NC(=O)CNC(=O)[C@H](CCC(=O)O)NC(=O)[C@H](CC(C)C)NC(=O)[C@](C)(Cc1ccccc1)NC(=O)[C@H](CO)NC(=O)[C@](C)(CO)NC(=O)[C@@H](NC(=O)[C@H](CC(=O)O)NC(=O)[C@H](CO)NC(=O)[C@@H](NC(=O)[C@](C)(Cc1ccccc1)NC(=O)[C@H](CO)NC(=O)CNC(=O)[C@H](CCC(=O)O)NC(=O)C(C)(C)NC(=O)[C@@H](N)Cc1c[nH]cn1)[C@@H](C)O)C(C)C)[C@@H](C)CC)C(C)C)C(C)C)C(=O)NCC(=O)NCC(N)=O)C(=O)O)C(=O)O
B2: SEQ ID NO 187 (peptide)
peptide: H[Aib]EGS[αMeF]TSDV[αMeS]S[αMeF]LEGEAA[αMeK]E[αMeF]IA[αMeF]VVK([Ahx-Ahx-Ahx-Stearoyl])GG-NH2
modifications: N-terminus assumed
SMILES: CCCCCCCCCCCCCCCCCC(=O)NCCCCCC(=O)NCCCCCC(=O)NCCCCCC(=O)NCCCC[C@H](NC(=O)[C@@H](NC(=O)[C@@H](NC(=O)[C@](C)(Cc1ccccc1)NC(=O)[C@H](C)NC(=O)[C@@H](NC(=O)[C@](C)(Cc1ccccc1)NC(=O)[C@H](CCC(=O)O)NC(=O)[C@](C)(CCCCN)NC(=O)[C@H](C)NC(=O)[C@H](C)NC(=O)[C@H](CCC(=O)O)NC(=O)CNC(=O)[C@H](CCC(=O)O)NC(=O)[C@H](CC(C)C)NC(=O)[C@](C)(Cc1ccccc1)NC(=O)[C@H](CO)NC(=O)[C@](C)(CO)NC(=O)[C@@H](NC(=O)[C@H](CC(=O)O)NC(=O)[C@H](CO)NC(=O)[C@@H](NC(=O)[C@](C)(Cc1ccccc1)NC(=O)[C@H](CO)NC(=O)CNC(=O)[C@H](CCC(=O)O)NC(=O)C(C)(C)NC(=O)[C@@H](N)Cc1c[nH]cn1)[C@@H](C)O)C(C)C)[C@@H](C)CC)C(C)C)C(C)C)C(=O)NCC(=O)NCC(N)=O
B3: SEQ ID NO 191 (peptide)
peptide: H[Aib]EGS[αMeF]TSDV[αMeS]S[αMeF]LEGEAA[αMeK]E[αMeF]IA[αMeF]VVK([γGlu-Stearoyl])GG-NH2
modifications: N-terminus assumed
SMILES: CCCCCCCCCCCCCCCCCC(=O)N[C@@H](CCC(=O)NCCCC[C@H](NC(=O)[C@@H](NC(=O)[C@@H](NC(=O)[C@](C)(Cc1ccccc1)NC(=O)[C@H](C)NC(=O)[C@@H](NC(=O)[C@](C)(Cc1ccccc1)NC(=O)[C@H](CCC(=O)O)NC(=O)[C@](C)(CCCCN)NC(=O)[C@H](C)NC(=O)[C@H](C)NC(=O)[C@H](CCC(=O)O)NC(=O)CNC(=O)[C@H](CCC(=O)O)NC(=O)[C@H](CC(C)C)NC(=O)[C@](C)(Cc1ccccc1)NC(=O)[C@H](CO)NC(=O)[C@](C)(CO)NC(=O)[C@@H](NC(=O)[C@H](CC(=O)O)NC(=O)[C@H](CO)NC(=O)[C@@H](NC(=O)[C@](C)(Cc1ccccc1)NC(=O)[C@H](CO)NC(=O)CNC(=O)[C@H](CCC(=O)O)NC(=O)C(C)(C)NC(=O)[C@@H](N)Cc1c[nH]cn1)[C@@H](C)O)C(C)C)[C@@H](C)CC)C(C)C)C(C)C)C(=O)NCC(=O)NCC(N)=O)C(=O)O
B4: SEQ ID NO 193 (peptide)
peptide: H[Aib]EGS[αMeF]TSDV[αMeS]S[αMeF]LEGEAA[αMeK]E[αMeF]IA[αMeF]VVK([γGlu-γGlu-γGlu-Stearoyl])GG-NH2
modifications: N-terminus assumed
SMILES: CCCCCCCCCCCCCCCCCC(=O)N[C@@H](CCC(=O)N[C@@H](CCC(=O)N[C@@H](CCC(=O)NCCCC[C@H](NC(=O)[C@@H](NC(=O)[C@@H](NC(=O)[C@](C)(Cc1ccccc1)NC(=O)[C@H](C)NC(=O)[C@@H](NC(=O)[C@](C)(Cc1ccccc1)NC(=O)[C@H](CCC(=O)O)NC(=O)[C@](C)(CCCCN)NC(=O)[C@H](C)NC(=O)[C@H](C)NC(=O)[C@H](CCC(=O)O)NC(=O)CNC(=O)[C@H](CCC(=O)O)NC(=O)[C@H](CC(C)C)NC(=O)[C@](C)(Cc1ccccc1)NC(=O)[C@H](CO)NC(=O)[C@](C)(CO)NC(=O)[C@@H](NC(=O)[C@H](CC(=O)O)NC(=O)[C@H](CO)NC(=O)[C@@H](NC(=O)[C@](C)(Cc1ccccc1)NC(=O)[C@H](CO)NC(=O)CNC(=O)[C@H](CCC(=O)O)NC(=O)C(C)(C)NC(=O)[C@@H](N)Cc1c[nH]cn1)[C@@H](C)O)C(C)C)[C@@H](C)CC)C(C)C)C(C)C)C(=O)NCC(=O)NCC(N)=O)C(=O)O)C(=O)O)C(=O)O

Starred links: 1 amine or outer side, 2 acyl side, 3 side chain; linkers in the order of their positions; H or OH if unused. Non-standard residues stand in square brackets, D forms with d. Groups on a side chain read outwards from the residue. Primed or numbered codes have the meaning given here. No end group written: not given here. *: point of attachment. γGlu = O=C(O)[C@H](CCC(=O)[*:2])N[*:1]; Stearoyl = CCCCCCCCCCCCCCCCCC(=O)*; αMeF = C[C@](N)(Cc1ccccc1)C(=O)O; αMeK = C[C@](N)(CCCCN)C(=O)O; αMeS = C[C@](N)(CO)C(=O)O; PEG2′ = not defined here; Aib = CC(C)(N)C(=O)O; Ahx = NCCCCCC(=O)O

Sequence of glucagon receptor (GCGR) (P47871 26-477): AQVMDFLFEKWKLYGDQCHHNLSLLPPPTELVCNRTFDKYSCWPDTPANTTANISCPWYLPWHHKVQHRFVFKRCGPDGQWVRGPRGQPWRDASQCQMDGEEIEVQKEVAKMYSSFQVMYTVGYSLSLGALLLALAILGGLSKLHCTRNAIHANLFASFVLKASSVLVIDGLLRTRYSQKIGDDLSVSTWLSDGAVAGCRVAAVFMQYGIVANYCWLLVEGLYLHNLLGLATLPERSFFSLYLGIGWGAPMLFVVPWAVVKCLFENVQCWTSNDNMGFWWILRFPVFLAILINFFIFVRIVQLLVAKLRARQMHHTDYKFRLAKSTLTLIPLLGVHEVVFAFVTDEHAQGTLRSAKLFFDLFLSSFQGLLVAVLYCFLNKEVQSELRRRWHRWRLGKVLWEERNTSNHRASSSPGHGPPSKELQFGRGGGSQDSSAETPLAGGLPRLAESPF

The target in the first assay is GLP-1 receptor (GLP-1R) (human, UniProt P43220 24-463). Briefly: cell-based or functional assay.
With B1, the “Primary assay EC50 (cAMP), GLP-1R n1” value is 0.17 nM; the “Primary assay EC50 (cAMP), GLP-1R n2” value is 0.06 nM; the “Primary assay EC50 (cAMP), Mean pM GLP-1R” value is 114 pM.

Regarding B2, the “Primary assay EC50 (cAMP), GLP-1R n1” value stood at 0.064 nM; the “Primary assay EC50 (cAMP), GLP-1R n2” value came out at 0.031 nM; the “Primary assay EC50 (cAMP), Mean pM GLP-1R” value came to 47.4 pM.

In the case of H[Aib]EGS[αMeF]TSDV[αMeS]S[αMeF]LEGEAA[αMeK]E[αMeF]IA[αMeF]VVK([PEG2′-PEG2′-Stearoyl])GG-NH2 [SEQ ID NO 189], the “Primary assay EC50 (cAMP), GLP-1R n1” value came out at 0.03 nM; the “Primary assay EC50 (cAMP), GLP-1R n2” value amounted to 0.012 nM; the “Primary assay EC50 (cAMP), Mean pM GLP-1R” value came out at 20.8 pM.

Regarding B3, the “Primary assay EC50 (cAMP), GLP-1R n1” value turned out to be 0.25 nM; the “Primary assay EC50 (cAMP), GLP-1R n2” value came out at 0.11 nM; the “Primary assay EC50 (cAMP), Mean pM GLP-1R” value turned out to be 182 pM.

Take H[Aib]EGS[αMeF]TSDV[αMeS]S[αMeF]LEGEAA[αMeK]E[αMeF]IA[αMeF]VVK([PEG2′-Stearoyl])GG-NH2 [SEQ ID NO 188]: the “Primary assay EC50 (cAMP), GLP-1R n1” value came out at 0.17 nM; the “Primary assay EC50 (cAMP), GLP-1R n2” value was 0.077 nM; the “Primary assay EC50 (cAMP), Mean pM GLP-1R” value was 125 pM.

In the case of H[Aib]EGS[αMeF]TSDV[αMeS]S[αMeF]LEGEAA[αMeK]E[αMeF]IA[αMeF]VVK([PEG2′-PEG2′-PEG2′-Stearoyl])GG-NH2 [SEQ ID NO 190], the “Primary assay EC50 (cAMP), GLP-1R n1” value is 0.0097 nM; the “Primary assay EC50 (cAMP), GLP-1R n2” value was 0.0047 nM; the “Primary assay EC50 (cAMP), Mean pM GLP-1R” value amounted to 7.2 pM.

Turning to B4, the “Primary assay EC50 (cAMP), GLP-1R n1” value is 0.33 nM; the “Primary assay EC50 (cAMP), GLP-1R n2” value stood at 0.095 nM; the “Primary assay EC50 (cAMP), Mean pM GLP-1R” value came to 213 pM.

The next assay concerns the target glucagon receptor (GCGR) (human, UniProt P47871 26-477). Briefly: cell-based or functional assay.
For the molecule B1, the “Primary assay EC50 (cAMP), Gluc-R, first run” value was 27 nM and the “Primary assay EC50 (cAMP), Gluc-R, second run” value came to 27 nM.

For the molecule B2, the “Primary assay EC50 (cAMP), Gluc-R, first run” value was 26 nM and the “Primary assay EC50 (cAMP), Gluc-R, second run” value stood at 26 nM.

As for H[Aib]EGS[αMeF]TSDV[αMeS]S[αMeF]LEGEAA[αMeK]E[αMeF]IA[αMeF]VVK([PEG2′-PEG2′-Stearoyl])GG-NH2 [SEQ ID NO 189], the “Primary assay EC50 (cAMP), Gluc-R, first run” value amounted to 27 nM and the “Primary assay EC50 (cAMP), Gluc-R, second run” value turned out to be 27 nM.

For the molecule B3, the “Primary assay EC50 (cAMP), Gluc-R, first run” value was 28 nM and the “Primary assay EC50 (cAMP), Gluc-R, second run” value came to 28 nM.

In the case of H[Aib]EGS[αMeF]TSDV[αMeS]S[αMeF]LEGEAA[αMeK]E[αMeF]IA[αMeF]VVK([PEG2′-Stearoyl])GG-NH2 [SEQ ID NO 188], the “Primary assay EC50 (cAMP), Gluc-R, first run” value was 28 nM and the “Primary assay EC50 (cAMP), Gluc-R, second run” value stood at 28 nM.

Consider H[Aib]EGS[αMeF]TSDV[αMeS]S[αMeF]LEGEAA[αMeK]E[αMeF]IA[αMeF]VVK([PEG2′-PEG2′-PEG2′-Stearoyl])GG-NH2 [SEQ ID NO 190], for which the “Primary assay EC50 (cAMP), Gluc-R, first run” value worked out at 26 nM and the “Primary assay EC50 (cAMP), Gluc-R, second run” value was 26 nM.

As to B4, the “Primary assay EC50 (cAMP), Gluc-R, first run” value was 26 nM and the “Primary assay EC50 (cAMP), Gluc-R, second run” value was found to be 26 nM.

The target in the next assay is T1, glucose-dependent insulinotropic peptide (gastric inhibitory polypeptide) receptor (GIPR) (human, UniProt P48546 22-466).
T1 sequence (looked up): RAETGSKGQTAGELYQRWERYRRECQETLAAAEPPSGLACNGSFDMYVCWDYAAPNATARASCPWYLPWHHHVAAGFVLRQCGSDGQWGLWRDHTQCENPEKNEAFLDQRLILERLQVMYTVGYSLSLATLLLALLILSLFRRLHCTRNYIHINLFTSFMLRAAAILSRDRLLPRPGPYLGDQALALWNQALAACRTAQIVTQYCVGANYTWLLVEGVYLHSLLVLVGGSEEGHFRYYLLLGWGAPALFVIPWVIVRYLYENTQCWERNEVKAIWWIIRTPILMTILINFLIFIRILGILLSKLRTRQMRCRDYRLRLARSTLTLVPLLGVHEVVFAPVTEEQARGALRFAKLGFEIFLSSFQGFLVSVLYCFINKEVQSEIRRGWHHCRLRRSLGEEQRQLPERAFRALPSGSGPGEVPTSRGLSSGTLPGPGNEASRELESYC
Briefly: cell-based or functional assay.
For the molecule B1, the “Primary assay EC50 (cAMP), GIP-R, first run” value turned out to be 27 nM and the “Primary assay EC50 (cAMP), GIP-R, second run” value is 27 nM.

Consider B2, for which the “Primary assay EC50 (cAMP), GIP-R, first run” value was 26 nM and the “Primary assay EC50 (cAMP), GIP-R, second run” value came to 26 nM.

For H[Aib]EGS[αMeF]TSDV[αMeS]S[αMeF]LEGEAA[αMeK]E[αMeF]IA[αMeF]VVK([PEG2′-PEG2′-Stearoyl])GG-NH2 [SEQ ID NO 189], the “Primary assay EC50 (cAMP), GIP-R, first run” value came out at 27 nM and the “Primary assay EC50 (cAMP), GIP-R, second run” value was 27 nM.

B3: the “Primary assay EC50 (cAMP), GIP-R, first run” value stood at 28 nM and the “Primary assay EC50 (cAMP), GIP-R, second run” value came out at 28 nM.

Take H[Aib]EGS[αMeF]TSDV[αMeS]S[αMeF]LEGEAA[αMeK]E[αMeF]IA[αMeF]VVK([PEG2′-Stearoyl])GG-NH2 [SEQ ID NO 188]: the “Primary assay EC50 (cAMP), GIP-R, first run” value worked out at 28 nM and the “Primary assay EC50 (cAMP), GIP-R, second run” value came to 28 nM.

In the case of H[Aib]EGS[αMeF]TSDV[αMeS]S[αMeF]LEGEAA[αMeK]E[αMeF]IA[αMeF]VVK([PEG2′-PEG2′-PEG2′-Stearoyl])GG-NH2 [SEQ ID NO 190], the “Primary assay EC50 (cAMP), GIP-R, first run” value was 26 nM and the “Primary assay EC50 (cAMP), GIP-R, second run” value amounted to 26 nM.

For the molecule B4, the “Primary assay EC50 (cAMP), GIP-R, first run” value stood at 26 nM and the “Primary assay EC50 (cAMP), GIP-R, second run” value is 26 nM.

Source of the values: patent US20200079833A1 (AstraZeneca / MedImmune, published 2020).
